Where two headings read alike, the source gives them in different places. Numbered stars: 1 amine (or outer) side, 2 acyl side, 3 side chain; on linkers, the order of the positions; unused ones are H or OH. Bridge positions count the residues as written; N and C are the ends. Square brackets hold non-standard residues; d marks the D form. Primed or numbered codes have the meaning given here. Ends that are not written are not given here. ABP = 2-amino-3-(5-bromothiophen-2-yl)propanoic acid, O=C([C@H](Cc1ccc(Br)s1)N[*:1])[*:2]; mXylyl = xylyl linker from dibromoxylene joining the two cysteines; Trp(5-Cl) = N[C@@H](Cc1c[nH]c2ccc(Cl)cc12)C(=O)O; des‑NH2 = missing amino-terminal amine group; Phe(3-Cl) = N[C@@H](Cc1cccc(Cl)c1)C(=O)O; Phe(4-Cl) = N[C@@H](Cc1ccc(Cl)cc1)C(=O)O; Phe(4-amidino)′ = not defined here; Igl = N[C@H](C(=O)O)C1Cc2ccccc2C1; NMeR = CN[C@@H](CCCNC(=N)N)C(=O)O; NMeI = CC[C@H](C)[C@H](NC)C(=O)O; BODIPY‑TMR = fluorescent label; dPhg = N[C@@H](C(=O)O)c1ccccc1; Chg = N[C@H](C(=O)O)C1CCCCC1; Phg = N[C@H](C(=O)O)c1ccccc1; Tle = CC(C)(C)[C@H](N)C(=O)O; αMeP = C[C@@]1(C(=O)O)CCCN1; 2‑APY = not defined here; Aze = O=C(O)[C@@H]1CCN1; Dab = NCC[C@H](N)C(=O)O; Mpa = O=C(O)CCS
B1: R2220 (peptide)
peptide: {des‑NH2}-CP[dPhg]C[ABP][Tle]-NH2
modifications: bridge 1-4; not fully specified (residue 1, bridges); printed as [mXylyl(1,4)](des-NH2)C-P-(D-Phg)-C-ABP-Tbg-NH2
B2: R2219 (peptide)
peptide: {des‑NH2}-CP[Phg]C[ABP][Tle]-NH2
modifications: bridge 1-4; not fully specified (residue 1, bridges); printed as [mXylyl(1,4)(des-NH2)C-P-Phg-C-ABP-Tbg-NH2
B3: R2212 (peptide)
peptide: {des‑NH2}-CP[dPhg]C[Dab][Tle]-NH2
modifications: bridge 1-4; not fully specified (residue 1, bridges); printed as [mXylyl(1,4)](des-NH2)C-P-(D-Phg)-C-Dab-Tbg-NH2
B4: R2211 (peptide)
peptide: {des‑NH2}-CP[Phg]C[Dab][Tle]-NH2
modifications: linker 1-4 via mXylyl; not fully specified (residue 1); printed as [mXylyl(1,4)](des-NH2)C-P-Phg-C-Dab-Tbg-NH2
B5: R2218 (peptide)
peptide: {des‑NH2}-CP[Igl]CR[Tle]-NH2
modifications: bridge 1-4; not fully specified (residue 1, bridges); printed as [mXylyl(1,4)](des-NH2)C-P-Ind-CR-Tbg-NH2
B6: R2198 (peptide)
peptide: [Mpa]P[Chg]C[2‑APY][Tle]-NH2
modifications: linker 1-4 via mXylyl; reading uncertain; also: printed as [mXylyl(1,4)](Des-NH2)C-P-Chg-C-(2-APY-Tbg-NH2)

Key:
[1] = molecular target: T1, Activated human plasma kallikrein (Enzyme Research Laboratories, HPKa 1303) (human, UniProt P03952 20-638); assay: cell-based or functional assay
T1 sequence (P03952 20-638 limits assumed): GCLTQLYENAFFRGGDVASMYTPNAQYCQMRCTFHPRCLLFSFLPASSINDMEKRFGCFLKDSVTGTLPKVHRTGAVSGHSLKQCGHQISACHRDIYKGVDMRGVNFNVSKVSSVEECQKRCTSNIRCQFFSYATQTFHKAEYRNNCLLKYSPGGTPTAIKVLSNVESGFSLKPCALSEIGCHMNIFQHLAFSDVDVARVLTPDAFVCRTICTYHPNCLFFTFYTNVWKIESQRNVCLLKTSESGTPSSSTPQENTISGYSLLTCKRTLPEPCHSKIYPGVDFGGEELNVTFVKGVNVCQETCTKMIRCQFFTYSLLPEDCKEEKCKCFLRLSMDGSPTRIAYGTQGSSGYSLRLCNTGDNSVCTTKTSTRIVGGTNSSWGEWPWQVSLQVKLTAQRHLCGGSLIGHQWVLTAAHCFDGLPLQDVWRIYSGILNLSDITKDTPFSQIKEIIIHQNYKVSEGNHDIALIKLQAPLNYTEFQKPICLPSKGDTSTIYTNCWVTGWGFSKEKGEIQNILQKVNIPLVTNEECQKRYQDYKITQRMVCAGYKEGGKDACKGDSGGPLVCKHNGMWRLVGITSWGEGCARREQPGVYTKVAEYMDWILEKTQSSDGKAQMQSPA

[2] = molecular target: T1, Activated human plasma kallikrein …; assay: cell-based or functional assay; remark: listed apart in the source

Binder	Avg. IC50 [1] [nM]	Avg. IC50 [2] [nM]
{des‑NH2}-CP[Chg]CR-{(S)‑2,2‑dimethyl‑1‑(pyridin-2-yl)propan‑1‑amine} (linker 1-4 via mXylyl) [R2196]	35.6	–
{des‑NH2}-CE(PEG 40 kDa)[Chg]CR[Tle]-NH2 (linker 1-4 via mXylyl) [R2213]	462	–
B1	> 100000	–
{BODIPY‑TMR}-MCESICRV-NH2 (linker 2-6 via mXylyl) [R2193]	205	–
{des‑NH2}-CP[Phg]CR[Tle]L[NMeR]YSE-NH2 (linker 1-4 via mXylyl) [R2216]	0.913	–
{des‑NH2}-C[αMeP][dPhg]CR[Tle]-NH2 (linker 1-4 via mXylyl) [R2200]	470	–
{des‑NH2}-CP[Phg]C[Trp(5-Cl)][Tle]-NH2 (linker 1-4 via mXylyl) [R2209]	> 75000	–
{des‑NH2}-CP[Chg]CR-{2‑methyl‑1‑(4H-1,2,4-triazol-3-yl)propan‑1‑amine} (linker 1-4 via mXylyl) [R2197]	56.9	–
B2	> 100000	–
{des‑NH2}-C[αMeP][Phg]CR[Tle]-NH2 (linker 1-4 via mXylyl) [R2199]	0.54	–
{des‑NH2}-CP[Chg]CR[Tle]-OH (linker 1-4 via mXylyl) [R2214]	4000	–
{des‑NH2}-CP[Phg]C[Phe(3-Cl)][Tle]-NH2 (linker 1-4 via mXylyl) [R2207]	> 75000	–
B3	> 100000	–
MCNYWSPWTSEIC-NH2 (cysteine pairing not given here) [R2105]	–	4.4
{des‑NH2}-CP[Phg]C-{4‑(aminomethyl)benzimidamide} (linker 1-4 via mXylyl) [R2221]	401	–
{des‑NH2}-CS[NMeI]CR[Tle]-NH2 (linker 1-4 via mXylyl) [R2204]	> 25000	–

Binder	Avg. IC50 [1] [nM]	Avg. IC50 [2] [nM]
{des‑NH2}-CE[Chg]CR[Tle]-NH2 (linker 1-4 via mXylyl) [R2201]	7	–
B4	> 75000	–
{des‑NH2}-CP[Chg]CR-OH (linker 1-4 via mXylyl) [R2195]	> 175000	–
[Mpa][Aze][Chg]CR[Tle]-NH2 (linker 1-4 via mXylyl) [R2194]	127	–
B5	3	–
{des‑NH2}-CP[Phg]CR[Tle]L-OH (linker 1-4 via mXylyl) [R2202]	58.8	–
{des‑NH2}-CP[Phg]C[Phe(4-Cl)][Tle]-NH2 (linker 1-4 via mXylyl) [R2205]	> 75000	–
{des‑NH2}-CP[Chg]C[2‑amino‑4‑(6-aminopyridin-3-yl)butanoic acid]V-NH2 (linker 1-4 via mXylyl; not fully specified (residue 1)) [R2203]	> 10000	–
{des‑NH2}-CP[dPhg]C[Phe(4-Cl)][Tle]-NH2 (linker 1-4 via mXylyl) [R2206]	> 75000	–
{des‑NH2}-CP[Phg]C[Phe(4-amidino)′]V-NH2 (linker 1-4 via mXylyl) [R2215]	6390	–
{des‑NH2}-CP[αMePhg]CR[Tle]-NH2 (linker 1-4 via mXylyl) [R2192]	851	–
{des‑NH2}-CP[dPhg]CR[Tle]L[NMeR]YSE-NH2 (linker 1-4 via mXylyl) [R2217]	114	–
B6	> 15000	–
Ac-NYWSPWT-NH2 [R2106]	–	374
{des‑NH2}-CP[dPhg]C[Trp(5-Cl)][Tle]-NH2 (linker 1-4 via mXylyl) [R2210]	> 75000	–
{des‑NH2}-CP[dPhg]C[Phe(3-Cl)][Tle]-NH2 (linker 1-4 via mXylyl) [R2208]	> 75000	–

Source: patent US20150166606A1 (RA PHARMACEUTICALS, published 2015)
